Measurements taken from patent US20130115170A1.
Where two headings read alike, the source gives them in different places.

Key:
[1] = molecular target: T1, cholera toxin B subunit (Vibrio cholerae), P01556; experiment: solid-phase ELISA, competition: peptide inhibits CTB binding to GM1
T1 chain: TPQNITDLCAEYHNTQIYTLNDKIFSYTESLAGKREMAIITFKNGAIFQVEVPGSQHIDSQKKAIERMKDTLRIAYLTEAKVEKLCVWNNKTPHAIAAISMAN

[2] = molecular target: T1, cholera toxin B subunit (Vibrio …); experiment: solid-phase ELISA, inhibition of CTB binding to GM1, peptide at its IC50 for GM1
[3] = molecular target: T1, cholera toxin B subunit (Vibrio …); experiment: solid-phase ELISA, inhibition of CTB binding to GD1b, peptide at 100 pmol/mL
[4] = molecular target: T1, cholera toxin B subunit (Vibrio …)
[5] = molecular target: T1, cholera toxin B subunit (Vibrio …); experiment: solid-phase ELISA, inhibition of CTB binding to LOSGM1, peptide at 100 pmol/mL
[6] = molecular target: T1, cholera toxin B subunit (Vibrio …); experiment: solid-phase ELISA, inhibition of CTB binding to Lipid A, peptide at 100 pmol/mL
[7] = molecular target: T1, cholera toxin B subunit (Vibrio …); experiment: solid-phase ELISA, inhibition of CTB binding to F-GM1, peptide at 100 pmol/mL

| Binder | IC50 [1] | inhibition percent [2] | inhibition percent [3] | inhibition percent [4] | inhibition percent [5] | inhibition percent [6] | inhibition percent [7] |
| --- | --- | --- | --- | --- | --- | --- | --- |
| IPQVWRDWFKLP (modifications not checked) [PGM1-3] | 9.6 nM | 50% |  |  |  |  |  |
| FPAWFTKLYPRT (modifications not checked) [PGM1-4] | 77.4 nM | 50% |  |  |  |  |  |
| VSWKTWFPNLAV (modifications not checked) [PGM1-1] | 38 nM | 50% |  |  |  |  |  |
| QINTAKWWKTHF (modifications not checked) [PGM1-5] | 34.4 nM | 50% |  |  |  |  |  |
| DASKALRSSGMP (modifications not checked) [PGM1-6] |  |  | -0% | -0% | -0% | -0% | -0% |
| YSPFHKWFPSMH (modifications not checked) [PGM1-2] | 46.1 nM | 50% |  |  |  |  |  |
